Article PMC9552169, “Mutations Increasing Cofactor Affinity, Improve Stability and Activity of a Baeyer–Villiger Monooxygenase” (ACS Catalysis, 2022)

Test system: O=C1CCCCC1
Test: purified protein
Settings: table prints only 'substrate', cyclohexanone taken from the standard assay (Figure 2: 100 μM NADPH, 50 mM TrisHCl pH 8.5)

Work on “CHMOAcineto (CHMOwt) (Acinetobacter johnsonii)” yielded a Km of 6.7 ± 2.0 µM.
